Test results from patent US20140154265.

T1: RLRGG-AMC, C-terminal peptide motif of Ub and ISG15 coupled to aminomethylcoumarin
T1 chain: RLRGG


Legend:
[1] = molecular target: T1, RLRGG-AMC, C-terminal peptide motif of …
[2] = molecular target: ubiquitin-aminomethylcoumarin, P0CG48
[3] = molecular target: FLAG-tagged ubiquitin, P0CG48
Chain of FLAG-tagged ubiquitin, P0CG48 (P0CG48 whole entry, looked up): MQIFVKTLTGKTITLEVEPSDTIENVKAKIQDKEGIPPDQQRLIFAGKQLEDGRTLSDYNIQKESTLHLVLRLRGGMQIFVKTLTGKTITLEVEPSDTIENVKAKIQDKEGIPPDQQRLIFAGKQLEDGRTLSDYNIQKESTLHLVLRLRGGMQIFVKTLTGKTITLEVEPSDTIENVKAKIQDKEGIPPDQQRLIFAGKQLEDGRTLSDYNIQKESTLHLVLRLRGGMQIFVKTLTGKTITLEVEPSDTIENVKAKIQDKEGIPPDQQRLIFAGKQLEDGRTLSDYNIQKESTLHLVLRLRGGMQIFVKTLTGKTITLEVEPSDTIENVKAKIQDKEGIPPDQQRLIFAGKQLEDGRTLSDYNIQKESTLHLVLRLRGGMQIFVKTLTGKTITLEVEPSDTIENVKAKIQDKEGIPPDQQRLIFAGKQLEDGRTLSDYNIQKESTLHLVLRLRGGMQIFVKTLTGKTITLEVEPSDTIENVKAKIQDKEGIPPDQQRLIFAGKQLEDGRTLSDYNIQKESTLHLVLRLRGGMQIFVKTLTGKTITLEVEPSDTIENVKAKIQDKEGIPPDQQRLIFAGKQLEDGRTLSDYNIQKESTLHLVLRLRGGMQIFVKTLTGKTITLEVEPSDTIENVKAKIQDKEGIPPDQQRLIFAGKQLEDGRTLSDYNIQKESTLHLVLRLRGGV

Chain of ubiquitin-aminomethylcoumarin, P0CG48 (P0CG48 whole entry, looked up): as above

Protein | kcat/KM [1] [M⁻¹ s⁻¹] | kcat/KM [2] [M⁻¹ s⁻¹] | kcat/KM value for Ub-AMC against that of the wild-type [2] | density of the alpha-flag lane (amount of remaining ubiquitin conjugates) [3]
EAV PLP2 domain (residues 261-392 of EAV pp1a) with C-terminal HIS6 purification tag, wild-type (protein) GYNPPGDGACGYRCLAFMNGATVVSAGCSSDLWCDDELAYRVFQLSPTFTVTIPGGRVCPNAKYAMICDKQHWRVKRAKGVGLCLDESCFRGICNCQRMSGPPPAPVSAAVLDHILEAATFGNVRVVTPEGQHHHHHH | 48 ± 8 | 21000 ± 2000 | – | –
EAV PLP2 domain I353R mutant (Ile353Arg), recombinant enzyme (protein) GYNPPGDGACGYRCLAFMNGATVVSAGCSSDLWCDDELAYRVFQLSPTFTVTIPGGRVCPNAKYAMICDKQHWRVKRAKGVGLCLDESCFRGRCNCQRMSGPPPAPVSAAVLDHILEAATFGNVRVVTPEGQHHHHHH | 71 ± 8 | 1100 ± 100 | the kcat/KM value for Ub-AMC of the mutant I353R is 20 times lower than that of the wild-type virus | –
EAV nsp2-3 polyprotein (residues 261-1064 of EAV pp1a) with N-terminal HA tag, PLP2 mutant I353R (protein) GYNPPGDGACGYRCLAFMNGATVVSAGCSSDLWCDDELAYRVFQLSPTFTVTIPGGRVCPNAKYAMICDKQHWRVKRAKGVGLCLDESCFRGRCNCQRMSGPPPAPVSAAVLDHILEAATFGNVRVVTPEGQPRPVPAPRVRPSANSSGDVKDPAPVPPVPKPRTKLATPNPTQAPIPAPRTRLQGASTQEPLASAGVASDSAPKWRVAKTVYSSAERFRTELVQRARSVGDVLVQALPLKTPAVQRYTMTLKMMRSRFSWHCDVWYPLAVIACLLPIWPSLALLLSFAIGLIPSVGNNVVLTALLVSSANYVASMDHQCEGAACLALLEEEHYYRAVRWRPITGALSLVLNLLGQVGYVARSTFDAAYVPCTVFDLCSFAILYLCRNRCWRCFGRCVRVGPATHVLGSTGQRVSKLALIDLCDHFSKPTIDVVGMATGWSGCYTGTAAMERQCASTVDPHSFDQKKAGATVYLTPPVNSGSALQCLNVMWKRPIGSTVLGEQTGAVVTAVKSISFSPPCCVSTTLPTRPGVTVVDHALYNRLTASGVDPALLRVGQGDFLKLNPGFRLIGGWIYGICYFVLVVVSTFTCLPIKCGIGTRDPFCRRVFSVPVTKTQEHCHAGMCASAEGISLDSLGLTQLQSYWIAAVTSGLVILLVCHRLAISALDLLTLASPLVLLVFPWASVGLLLACSLAGAAVKIQLLATLFVNLFFPQATLVTMGYWACVAALAVYSLMGLRVKVNVPMCVTPAHFLLLARSAGQSREQMLRVSAAAPTNSLLGVARDCYVTGTTRLYIPKEGGMVFE | – | – | – | shows a density of the alpha-flag lane that is about twice as high as that of the T312A lane
EAV nsp2-3 polyprotein (residues 261-1064 of EAV pp1a) with N-terminal HA tag, PLP2 mutant T312A (protein) GYNPPGDGACGYRCLAFMNGATVVSAGCSSDLWCDDELAYRVFQLSPTFTVAIPGGRVCPNAKYAMICDKQHWRVKRAKGVGLCLDESCFRGICNCQRMSGPPPAPVSAAVLDHILEAATFGNVRVVTPEGQPRPVPAPRVRPSANSSGDVKDPAPVPPVPKPRTKLATPNPTQAPIPAPRTRLQGASTQEPLASAGVASDSAPKWRVAKTVYSSAERFRTELVQRARSVGDVLVQALPLKTPAVQRYTMTLKMMRSRFSWHCDVWYPLAVIACLLPIWPSLALLLSFAIGLIPSVGNNVVLTALLVSSANYVASMDHQCEGAACLALLEEEHYYRAVRWRPITGALSLVLNLLGQVGYVARSTFDAAYVPCTVFDLCSFAILYLCRNRCWRCFGRCVRVGPATHVLGSTGQRVSKLALIDLCDHFSKPTIDVVGMATGWSGCYTGTAAMERQCASTVDPHSFDQKKAGATVYLTPPVNSGSALQCLNVMWKRPIGSTVLGEQTGAVVTAVKSISFSPPCCVSTTLPTRPGVTVVDHALYNRLTASGVDPALLRVGQGDFLKLNPGFRLIGGWIYGICYFVLVVVSTFTCLPIKCGIGTRDPFCRRVFSVPVTKTQEHCHAGMCASAEGISLDSLGLTQLQSYWIAAVTSGLVILLVCHRLAISALDLLTLASPLVLLVFPWASVGLLLACSLAGAAVKIQLLATLFVNLFFPQATLVTMGYWACVAALAVYSLMGLRVKVNVPMCVTPAHFLLLARSAGQSREQMLRVSAAAPTNSLLGVARDCYVTGTTRLYIPKEGGMVFE | – | – | – | a mutant such as T312A already shows a level of DUB-activity that leads to a significantly denser alpha-flag lane, which represents the amount of remaining ubiquitin conjugates, than that of the wild-type virus
